Our source for the binding result and binding signal values is article PMC7375243, “Structural Basis of Human Helicase DDX21 in RNA Binding, Unwinding, and Antiviral Signal Activation” (Advanced Science, 2020).

Some results are limits rather than exact numbers.

Conditions in all cases: protein: recombinant; tags: N-terminal His-SUMO, removed by ULP1; label: FAM; single strand
In one data set the target is T1, DDX21 core T494A (human, UniProt Q9NR30 188-563, T494A).
T1 sequence: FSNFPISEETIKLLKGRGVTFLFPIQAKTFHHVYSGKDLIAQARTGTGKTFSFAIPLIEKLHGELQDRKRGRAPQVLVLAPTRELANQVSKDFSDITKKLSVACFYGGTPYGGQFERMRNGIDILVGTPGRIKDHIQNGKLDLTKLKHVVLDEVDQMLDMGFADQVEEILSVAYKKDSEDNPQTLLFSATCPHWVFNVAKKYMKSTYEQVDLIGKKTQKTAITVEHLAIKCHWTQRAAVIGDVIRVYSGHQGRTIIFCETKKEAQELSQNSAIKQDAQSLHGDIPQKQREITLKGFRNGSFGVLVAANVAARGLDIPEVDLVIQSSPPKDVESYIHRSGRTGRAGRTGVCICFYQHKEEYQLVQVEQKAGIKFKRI
In words: UV crosslinking; negligibly affected; MST: 50 mM Tris pH 7.5, 50 mM KCl, 2 mM MgCl2, 1 mM TCEP, 0.01% NP-40, 0.05 mg/mL BSA, 2 mM AMPPNP, 50 nM FAM-RNA; temperature not given; crosslinking buffer not in material.

The next data set has as its target T2, DDX21 core T315A (human, UniProt Q9NR30 188-563, T315A).
T2 sequence: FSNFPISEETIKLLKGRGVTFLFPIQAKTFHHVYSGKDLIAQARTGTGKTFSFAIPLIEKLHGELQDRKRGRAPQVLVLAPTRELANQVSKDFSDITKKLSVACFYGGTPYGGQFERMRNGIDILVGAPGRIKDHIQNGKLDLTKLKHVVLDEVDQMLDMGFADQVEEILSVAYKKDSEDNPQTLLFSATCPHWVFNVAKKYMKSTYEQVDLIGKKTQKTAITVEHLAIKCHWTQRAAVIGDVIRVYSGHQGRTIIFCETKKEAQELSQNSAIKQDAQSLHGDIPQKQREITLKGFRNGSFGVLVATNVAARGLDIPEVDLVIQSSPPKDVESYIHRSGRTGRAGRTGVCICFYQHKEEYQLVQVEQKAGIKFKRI
The description is as above.

Data set [1] addresses T3, DDX21 core D339H/E340G (DEV mutant) (human, UniProt Q9NR30 188-563, D339H;E340G).
T3 sequence: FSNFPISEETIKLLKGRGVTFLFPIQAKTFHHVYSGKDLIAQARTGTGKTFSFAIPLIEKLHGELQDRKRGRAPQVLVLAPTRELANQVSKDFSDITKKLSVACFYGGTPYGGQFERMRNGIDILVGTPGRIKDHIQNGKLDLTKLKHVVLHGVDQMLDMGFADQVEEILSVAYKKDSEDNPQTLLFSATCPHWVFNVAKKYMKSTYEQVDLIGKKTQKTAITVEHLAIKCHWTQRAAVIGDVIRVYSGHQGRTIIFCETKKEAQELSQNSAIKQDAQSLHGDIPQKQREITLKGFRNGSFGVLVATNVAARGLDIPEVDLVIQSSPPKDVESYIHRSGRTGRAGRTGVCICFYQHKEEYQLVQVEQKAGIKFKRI
The data set is described as follows: UV crosslinking; highest activity of all; MST: 50 mM Tris pH 7.5, 50 mM KCl, 2 mM MgCl2, 1 mM TCEP, 0.01% NP-40, 0.05 mg/mL BSA, 2 mM AMPPNP, 50 nM FAM-RNA; temperature not given; crosslinking buffer not in material.

The next data set has as its target T4, DDX21 core 3R to A (human, UniProt Q9NR30 188-563, R270A;R318A;R476A).
T4 sequence: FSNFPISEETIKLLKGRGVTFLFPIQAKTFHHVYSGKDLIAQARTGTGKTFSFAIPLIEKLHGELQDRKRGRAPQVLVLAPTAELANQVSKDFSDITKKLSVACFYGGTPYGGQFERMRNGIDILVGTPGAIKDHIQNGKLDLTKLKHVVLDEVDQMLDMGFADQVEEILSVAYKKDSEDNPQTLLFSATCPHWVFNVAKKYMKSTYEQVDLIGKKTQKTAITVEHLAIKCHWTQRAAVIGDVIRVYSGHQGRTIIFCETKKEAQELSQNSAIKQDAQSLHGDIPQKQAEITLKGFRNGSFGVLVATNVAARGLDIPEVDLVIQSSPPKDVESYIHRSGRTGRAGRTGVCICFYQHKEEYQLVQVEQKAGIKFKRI
In words: UV crosslinking; reduced by more than half; MST: 50 mM Tris pH 7.5, 50 mM KCl, 2 mM MgCl2, 1 mM TCEP, 0.01% NP-40, 0.05 mg/mL BSA, 2 mM AMPPNP, 50 nM FAM-RNA; temperature not given; crosslinking buffer not in material.

In another data set the target is T5, DDX21 core 4R to A (human, UniProt Q9NR30 188-563, R255A;R270A;R318A;R476A).
T5 sequence: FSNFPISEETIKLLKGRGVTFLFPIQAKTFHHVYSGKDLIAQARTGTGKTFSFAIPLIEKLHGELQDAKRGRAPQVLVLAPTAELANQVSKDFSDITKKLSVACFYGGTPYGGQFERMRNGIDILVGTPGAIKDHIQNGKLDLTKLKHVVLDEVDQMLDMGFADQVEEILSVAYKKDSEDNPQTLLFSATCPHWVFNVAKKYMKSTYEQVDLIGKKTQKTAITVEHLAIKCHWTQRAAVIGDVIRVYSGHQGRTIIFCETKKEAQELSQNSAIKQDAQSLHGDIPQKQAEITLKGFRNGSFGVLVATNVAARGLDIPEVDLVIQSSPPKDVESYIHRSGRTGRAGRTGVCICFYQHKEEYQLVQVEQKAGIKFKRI
The data set is described as above.

Regarding UUUUUUUUUUUUUUU (ssRNA) [FAM-U15], the binding result (in the data set with DDX21 core T494A; with DDX21 core T315A; in data set [1]) was “binds” each time. Moreover, the binding signal with DDX21 core 3R to A and in the data set with DDX21 core 4R to A was < 50 % of WT each time.
